Laboratory results taken from article doi:10.1101/2020.02.08.939488.

Target: rabbit reticulocyte lysate 60S ribosomal subunit, purified (rabbit) (UniProt G1SV32)
Assay: co-sedimentation

Ebp1 concentration at saturated binding (100 nM 60S): 200 nM
Kd: 124 nM
Substance: recombinant full-length Ebp1 with a N-terminal histidine tag (Ebp1-His) (from UniProt P50580 1-394) (natural protein)
